# Key:
# HLA-A*24:02 = experiment: IEDB peptide-MHC binding, purified MHC/competitive/fluorescence; ≥ and ≤ were set here for values at or beyond the usual limits of such assays
# HLA-A*02:01 = experiment: as above
# HLA-B*07:02 = experiment: IEDB peptide-MHC binding, purified MHC/competitive/radioactivity; filed as Kd, often an IC50 or EC50 that approximates it; ≥ and ≤ were set here for values at or beyond the usual limits of such assays
# HLA-A*30:02 = experiment: as above
# HLA-A*01:01 = experiment: as above
# HLA-A*30:01 = experiment: as above
# HLA-A*32:01 = experiment: as above
# HLA-A*29:02 = experiment: as above
# HLA-A*26:01 = experiment: as above
# HLA-B*15:01 [1] = experiment: as above
# HLA-B*51:01 = experiment: as above; details: source organism: Dengue virus 1 Brazil/97-11/1997
# HLA-B*35:01 = experiment: as above
# HLA-B*53:01 = experiment: as above; details: source organism: Dengue virus 1 Brazil/97-11/1997
# HLA-A*11:01 = experiment: IEDB peptide-MHC binding, purified MHC/competitive/fluorescence; ≥ and ≤ were set here for values at or beyond the usual limits of such assays
# HLA-B*15:01 [2] = experiment: IEDB peptide-MHC binding, purified MHC/competitive/fluorescence; filed as Kd, often an IC50 or EC50 that approximates it; ≥ and ≤ were set here for values at or beyond the usual limits of such assays; details: source organism: Bacillus cereus G9241
# [3] = source organism: Vaccinia virus
# [4] = source organism: Zaire ebolavirus
# [5] = source organism: Dengue virus 1 Brazil/97-11/1997
# [6] = source organism: Mammarenavirus juninense
# [7] = source organism: Vaccinia virus WR
# [8] = source organism: Dengue virus 4 Philippines/H241/1956
# [9] = source organism: Dengue virus 2 Jamaica/1409/1983
# [10] = source organism: Dengue virus 3 Martinique/1243/1999
# [11] = source organism: Mammarenavirus brazilense
# [12] = source organism: Sudan ebolavirus
# [13] = source organism: Lymphocytic choriomeningitis virus (strain Armstrong)
sequence,measurement,setting,value
KFPYEGGKV,IC50,HLA-A*24:02; [3],≥ 130 µM
same,IC50,HLA-A*02:01; [3],≥ 96.1 µM
KNSQKGQHI,IC50,HLA-A*24:02; [4],≥ 615 µM
KPEGKVIDL,Kd,HLA-B*07:02; [5],0.496 µM
KTGEKSRCY,Kd,HLA-A*30:02; [6],2.19 µM
same,Kd,HLA-A*01:01; [6],≥ 22.5 µM
same,Kd,HLA-A*30:01; [6],2.48 µM
same,Kd,HLA-A*32:01; [6],0.116 µM
same,Kd,HLA-A*29:02; [6],≥ 78.9 µM
same,Kd,HLA-A*26:01; [6],≥ 77.9 µM
KTIARFTYF,Kd,HLA-B*15:01 [1]; [7],0.000195 µM
same,Kd,HLA-A*32:01; [7],0.0952 µM
KTKLTDWDFV,Kd,HLA-A*32:01; [8],15.6 µM
KVIQLSRKTF,Kd,HLA-B*15:01 [1]; [9],0.0495 µM
LALGCYSQV,Kd,HLA-B*51:01,0.567 µM
LFRFFECTF,Kd,HLA-B*15:01 [1]; [7],3.03 µM
LIILSAVAI,Kd,HLA-A*32:01; [7],0.125 µM
LILCVTQVLM,Kd,HLA-B*35:01; [9],14.2 µM
LMILLTGGAM,Kd,HLA-B*15:01 [1]; [10],0.00291 µM
LPDTIETLML,Kd,HLA-B*51:01,19.3 µM
same,Kd,HLA-B*53:01,0.297 µM
same,Kd,HLA-B*35:01; [5],0.578 µM
LPVWLAYKVA,Kd,HLA-B*35:01; source organism: Dengue virus 2 Peru/IQT2913/1996,5.09 µM
LQHILIEYM,Kd,HLA-B*15:01 [1]; [7],1.22 µM
LVVGEKACL,IC50,HLA-A*24:02; [4],≥ 139 µM
same,IC50,HLA-A*02:01; [4],≥ 115 µM
LYPNVCIFG,IC50,HLA-A*24:02; [3],0.0716 µM
MGLDKGWPI,Kd,HLA-B*51:01,≥ 44.7 µM
MGVTGILQL,IC50,HLA-A*11:01; [4],≥ 73.8 µM
same,IC50,HLA-A*24:02; [4],≥ 85.2 µM
same,IC50,HLA-A*02:01; [4],52.9 µM
NLSGVNNLE,IC50,HLA-A*24:02; [4],≥ 86.4 µM
same,IC50,HLA-A*02:01; [4],≥ 227 µM
NMRDLIVTF,Kd,HLA-B*15:01 [1]; [7],0.00826 µM
NSIEYILSF,Kd,HLA-B*15:01 [1]; [7],2.26 µM
RIFFGKTSI,Kd,HLA-A*32:01; [7],0.00132 µM
RISRFANLI,Kd,HLA-A*32:01; [7],0.00623 µM
RLRGEQRKTF,Kd,HLA-B*15:01 [1]; [8],0.0244 µM
RMNAVSTIL,Kd,HLA-B*15:01 [2],0.0827 µM
RVLSLIGLK,IC50,HLA-A*11:01; source organism: West Nile virus,0.334 µM
RYQATGFGT,IC50,HLA-A*24:02; [4],≥ 99.3 µM
same,IC50,HLA-A*02:01; [4],≥ 226 µM
SLTEEFYHSY,Kd,HLA-A*30:02; [11],0.225 µM
same,Kd,HLA-A*01:01; [11],0.129 µM
same,Kd,HLA-A*30:01; [11],≥ 58.5 µM
same,Kd,HLA-A*32:01; [11],≥ 26.1 µM
same,Kd,HLA-A*29:02; [11],1.44 µM
same,Kd,HLA-A*26:01; [11],3.41 µM
SNTTGRLIW,IC50,HLA-A*24:02; [12],3.61 µM
SPSKLASAIQ,Kd,HLA-B*07:02; [9],0.436 µM
SPSPTVEESR,Kd,HLA-B*07:02; [10],3.71 µM
STAPSSPPPY,Kd,HLA-A*30:02; [13],1.52 µM
same,Kd,HLA-A*01:01; [13],0.034 µM
same,Kd,HLA-A*30:01; [13],0.344 µM
same,Kd,HLA-A*32:01; [13],9.4 µM
same,Kd,HLA-A*29:02; [13],2.69 µM
same,Kd,HLA-A*26:01; [13],8.26 µM
TPRSMPGTRR,Kd,HLA-B*07:02; [10],1.14 µM
TPSMTMRCVG,Kd,HLA-B*07:02; [10],0.048 µM
TPTWNRKELL,Kd,HLA-B*07:02; [10],0.0182 µM
VISDLFPSF,Kd,HLA-B*15:01 [1]; [7],0.21 µM
VQKEGVFHTM,Kd,HLA-B*15:01 [1]; [10],0.0242 µM
VTAETQNSSF,Kd,HLA-B*15:01 [1]; [10],0.0259 µM
same,Kd,HLA-A*01:01; [10],16.2 µM
same,Kd,HLA-A*26:01; [10],≥ 20.4 µM
WLPMTVAAM,Kd,HLA-B*15:01 [1]; source organism: Dengue virus 3 Sri Lanka/1266/2000,0.177 µM
YLEYEIENF,IC50,HLA-A*24:02; [12],17.3 µM
same,IC50,HLA-A*02:01; [12],42.6 µM
